Measured values reported in the DeepSol protein solubility set.

Assay: soluble on expression in E. coli; label from the status in PepcDB or PDB records

Soluble on expression in E. coli, not soluble:
MLEELTLERFLSHRSAFSLVIDVRSPHEYLESHLPGALNLPVLSDLEHERVGTLYKESPFEARILGASLICANIASALSWLKDSLHPSQKVLIYCARGGQRSLSLALILSSIGYQIARLIGGYKGYRAHVAASWQVPRKESFLTLVGPTGGGKSELIQSLSWSLDIEGLARHKGSSFGAIEGEQPSTKMFQNLLFERLLGLREEPLVAVEGESKRLGNLILPSPLYERYKSAPKVFIDSPLEARIDRTMQEYASISPAFFEGAMQKIARYMNKEAHKAASLAFWQGDLRRCAELLLVEYYDKVYKMEPCEYTILHTSKESTLKELERIKGEILSSVRE, MLELNFSQTLGTHCLTLNETLPASGITAIFGVSGAGKTSLINAISGLTRPQKGRIALNGRVLHDAENGICLTPEKRRIGYVFQDARLFPHYKVRGNLRYGMAKSMTGQFDKLVSLLGIEALLDRLPGSLSGGEKQRVAIGRALLTAPELLLLDEPLASLDIPRKRELLPYLQRLAREINIPMLYVSHSLDEILHLADKVMVLEDGQVKAFGPLEEVWGSSVMHPWLPKEQQSSILKVSVLEHHPHYAMTALALGDQHLWVNKLNQPLQSTLRIRIQASDVSLVLQPPQQTSIRNVLRAKVANCYDDNGQVEVQLEIGGRTLWARISPWARDELNIKPGLWLYAQVKSVSITA, MLELVQKGITPEDAITAGKKARKYFELTYYVMPGLGGRERSEQHAVNTARVINKAQPTFVRLRTLTVIEGTPIEKLVGKEITLLGPVEQLEEVRRLVEEIKVETLLLSDHVSNYLFTRSGPIFFGVSGKLPDEKEQMLEQVDDAIKTVKLLEESGERVFNSNDMYRMGLIGL, MLFGQSVFQSVVERLKQEKEEEGTEPSPPAGHRIAGFSSGFVVDTHIEAPQPANGNLDAYLAFLADPAPPPESQTEPEPEPMPAHLEKTALADVSAELAIQETDTVATLAEKRRAFARLNHPDRVKPQFRHNATLRMTAANLLIDQALRMLRTREHFR, MLFNLLGKPLKICGCSPRTGWYLDGYCKTDQSDLGNHSICSVVTDTFLKYTKSQGNNLIDPNLLMEFPGLKAGDHWCLCAERWEQARIDGVAPPIIIESTNLSATQVIPLNILKSFAFEII, MLFRVRSETDSQPPFACLNDIKLFDTDNIGRGINAAILNGTTGDIIEKATFDVTASDEKLMTWLLKVPHASLLVAASFGDVAEHVSRQSRQLFAAFGAQKIDNWRVGNAYAIIGQRGIRRGEAHETVAKFLEENTQQKLFEGCFDLPIAEIGGEVELKIDGPPVHRADESKLAELGAFEADLLQQNKDVEYGGKWKNCGMDRPCNEADTIPVHFFSGEHKDDHPKMCIGGRMLFDKDLNSAGRGLNLAMLEPKTGKVTAVAHFDTYEDESHGLEEWLDAVPTGYIVAVVSFDEASNQLSDMARRIFYEMGSSMIDRLKFRASWYFVGQKGIGAYTPFEDLNIPQGNNWANPIHTSFCLPKSLHKWAGRRDTSSSMTSSASNDVRNLPKRHFCAKYDRHEEFCGAANLDSPIMPRHLSDEQRSSDAIFNVPILVASGLAPDSLRITLESLLNQEGLNTQMVLVTYDKEYSENADLVSLFHVKSVAIQSNGSYNGRKTSWKSEEIAENPMKIDRKPPGGLGNQKFVFLGHQFF, MLGSPVAGAQVRVWQLDLDGQRKGREPLREAVTDDRGRFRIEMGAAHGNLLVESAGGETRELWSEEPLGLDPDVPLEAIIPLYIPVQHREIVVSPFTSVAAALVERRPVEPGRFHEAMQGVHALLGGHLGGIDILDAPVTPIDEPATQLTPGVRHGLLLGALSMLAGRMAEETGASVRGLNTMMLTAALREDARDESGLLDGVGPEGAIALGFCVDPPSGADTPLCRLSAQTLRQDLAETLAFHLLGSAQDGTGLSFGDGVVLANEVAQGTETALFGNVQPGNVGDERAPVITPLASPYYEESEDAIAFEDDLTPVHVRSEAARIDLSEVFENDCDREIHKHVDVLGAGDANPLRWRFAVKDDLAGFDVEDLLVQLRVPGVLAARPLAVTSVELPEGETAPGRVFEVFARERDAEELARVEGRYNIEIAATDRLGNTSPVLRGCWRHVPRAAPLWAGSFNAASGPGSFDERRLESNNLAPVLRGDQAPVLARLEVQNNTDEDVFLTLRADDIVGRYSATWTRSRVLLSEEEGMSDCLETGECFSAPPPDVVDEIIGLQPIPDSLVTLRVFDLATGVTPKCPNCRPNEVQIAAGGHFEVQAVVSNLAFLVPPSVNRTQIQEIQVGPIGAQVQLTGVDRRGYVHCEDTVPGSSLCRVRLSYQLFHALARATLQVDSLTISAVSSPLSTLAPRSPQPPLEGDNFTFSLPVSTAVTWTTEDASIPVSQ, MLGTIKPNYWIRKLSTKTSYGYRIDARAYVKVVRKTYHFLWKDSEEIVIFNPNADVGGLLYIGGLEHHHHHH, MLHFYQAVAQLMEHIRGAKAHDVRFTQPLADKPPFALIDWLDAQPIFPKFYWQSRDTREEVVALGQVYTFTDPAPAYAILGDEQRVWGGRSFDGHTAKNPRCMSSFFFLPQIELIRRDEQWLLAVNINNEPQRTLTALQKLLVEVPTLRSMTAHVTRVEHTPTAANWHDLVEKVLAGITEKQFKKVVLARKTTLTLDAPLSAAQLLKASHAQNHHSFHFLLALDSRHSFMGSTPERLYLRHGQNLETEALAGTIGRGANATQDMELAHWLTHDSKNLNENQLVVEDIIESLAPHAEQIHTQREAQLVRLRKVQHLKKRIDAQLKSGVNGVQLLGVLQPTAAVAGLPRQAALAFIAENEPFARGWYAGSMGYFSHAQAEFCVAIRSALVVDKQVQLYAGAGIVPGSIAEHEWQELDKKLSTLLSLITDRLPLGVAS, MLIYEGHIDKLIRRGQEKGLDIYNLIRTAVFNPVEHYGLNVGLLREGDPADFIIVDNLKSFNILSTFIDGECVYENGKVLFPLEHHHHHH, MLKDEYGRVVTNLRIAVTKKCNLRCFYCHKEGESNPGEEISAERIVEIARAFKELGVRKLKITGGEPLLRKDLPDIILNLPEFEEISMTTNGILLEKYAEELRECGLSRVNVSLDTLDAEKYRWITGGGEVQKVVNGIEKACEVGLTPVKINMLVLGGVNDNEVDELLEFTNSFNRGNTKAILQVIELVPFPGFEKYFFDISTIEEKYARMATQRRVRAMHRRTQYFTPKGVIEFVKPMDNTAFCMHCNRMRVTSDGKLKPCLLRNETITIDGKHGEELARAIIETVRKREPYFKG, MLKKRFYILLFFCLLLGGNVNSSTVDKGDNNAPFENKRTETDYLPIADPFVMLYNNKYYAYGTGGTVNEGFACFSSDDLKNWKRERQALSADDSYGKWGFWAPEVYYIQSKKKFYMFYSVEEHICVATSDSPVGPFRQESKQPIWEEKSIDTSLFIDDDGTPYLYFVRFTDGNVIWVAQMTDDLMKIKKETLSECIKAEEPWELLQAKVAEGPSVLKKKGMYYLIYSANHYQNKGYGVGYATSKSPMGPWTKYDKNPLLQGDESTGLVGTGHGAPFQCKDGSWKYIFHAHWNKEKIHPRTSYFKDFTISKQGVVSITGKVIKPKVIK, MLKYMLDTNIAIYVIKRRPIEVLVTFNRYADMMCVSAVTEAELLHGAEKSRQREHNLRQVADFLSRLEVLSYTSKAAGHYGDIRADLERKEKPIGVNDLHIAAHARSEGFILVSNNLREFERVDGLRLENWIT

Soluble on expression in E. coli, soluble:
MLEFETNIDGLASIKVIGVGGGGNNAVNRMIENEVQGVEYIAVNTDAQALNLSKAEVKMQIGAKLTRGLGAGANPEVGKKAAEESKEQIEEALKGADMVFVTAGMGGGTGTGAAPVIAQIAKDLGALTVGVVTRPFTFEGRKRQLQAAGGISAMKEAVDTLIVIPNDRILEIVDKNTPMLEAFREADNVLRQGVQGISDLIATPGLINLDFADVKTIMSNKGSALMGIGIATGENRAAEAAKKAISSPLLEAAIDGAQGVLMNITGGTNLSLYEVQEAADIVASASDQDVNMIFGSVINENLKDEIVVTVIATGFIEQEKDVTKPQRPSLNQSIKTHNQSVPKRDAKREEPQQQNTVSRHTSQPADDTLDIPTFLRNRNKRG, MLELLYTALLYLIQPLIWIRLWVRGRKAPAYRKRWGERYGFYRHPLKPGGIMLHSVSVGETLAAIPLVRALRHRYPDLPITVTTMTPTGSERVQSAFGKDVQHVYLPYDLPDALNRFLNKVDPKLVLIMETELWPNLIAALHKRKIPLVIANARLSARSAAGYAKLGKFVRRLLRRITLIAAQNEEDGARFVALGAKNNQVTVTGSLKFDISVTPQLAAKAVTLRRQWAPHRPVWIATSTHEGEESVVIAAHQALLQQFPNLLLILVPRHPERFPDAINLVRQAGLSYITRSSGEVPSTSTQVVVGDTMGELMLLYGIADLAFVGGSLVERGGHNPLEAAAHAIPVLMGPHTFNFKDICARLEQASGLITVTDATTLAKEVSSLLTDADYRSFYGRHAVEVLYQNQGALQRLLQLLEPYLPPKTHLEHHHHHH, MLERQQDSFRFICRTCPFYYQVEGKMERKVFGLQKKQEADILGGDKQWELADQTDTLCPRCSHGKAYFFQMQTRSADEPMSTFYRCVHCGHQWKEN, MLETRATTAKQLVQAPEQPAPQPEVAPPTTEQPAPAPAPGTTPGTENFNTPNATPETTEPRVLVSEVLVRPQSGQLTPELETQVYNVIRTQPGRTTTRSQLQEDINAIFGTGFFSNVQASPEDTPLGVRVSFIVQPNPVLSKVEIQANPGTNVPSVLPQATADEIFRAQYGKILNLRDLQEGIKELTKRYQDQGYVLANVVGAPQVSENGVVTLQVAEGVVENISVRFRNKEGQDVNEQGQPIRGRTQDYIITREVELKPGQVFNRNTVQKDLQRVFGTGLFEDVNVSLDPGTDPTKVNVVVNVVERSLEHHHHHH, MLGACVEKPSTLERVKEDGVLRVVTRNSPATYFQDRNGETGFEYELVKRFADDLGVELKIETADNLDDLFDQLGQPKGPVLAAAGLVSSEQRKQQVRFSHPYLEVTPQVIYRNGRSRPTTAQDLVGKHIMVLKGSTHAEQLAELKLKYPGIEYEESDAVEVVDLLRMVDEGQIDLTLVDSNELAMNQVYFPNVRVAFDLGDARSQSWAVAAGDDNSLLNEINSFLDKVEKNGTLQRLKDRYYGHVDVLGYVGAYTFAQHLQQRLPKYEKHFKASAKQEKLDWRLLAAVGYQESMWQAEVTSKTGVRGLMMLTQNTAQAMGVSNRLDPKQSISGGAKYLAYIKEQLDDKIEEPDRTWFALAAYNVGTGHLDDARKLAEKEGLNPNKWLDVKKMLPRLSQKQWYSKTRYGYARGGEPVHFVANIRRYYDILTWVTQPQLEGDQVAEGNLHVPGVNKTKPPEENPPLLEHHHHHH, MLGFNGERLDPASGAFHLGNGYRAYSPALMRFHCPDSLSPFGASGVNPYAYCAGDPANRADPSGHLSWQAWTGIGLAVASLALAAFTAGTSIIASGGIVAALESASAITLAEGGLAVVSDMTAIACGAMEASDPQAAAALSWVSLACGAMGMVHAGYGAVRGIDRKLGAFLQENSRFLGKITRGERDSLGIPLGGGLTKCFRPASEMEGASAGIALGRLHRSSSTPDMEAFLALPAAKRKRIGSGVSGVVYEAGRGWVVKIAIDPLPIETMEREAEIFRAVHGPRSALVAENMLWMKRIPGVPVNTLNLLADEKAEMWQKTLAEVKRLQEMGIHHGDPSWNNLLFDQQTGTVSFIDFGKSRYLDGFAPATLEHHHHHH, MLHLVLYQPEIPQNAGNVARTAAALGWPLHLIRPLGFLLSSPKLKRAGLDYWPHVDLRLHDSFAAFLEALPRGARVFAFSARGEASLYEARFREGDYLLFGPESRGLPEEVLARFPTLKIPMPGPVRSLNLAVAVGVAAYEAYRQLTGR
